Measurements: publication PMC6962051, “Auxiliary-assisted chemical ubiquitylation of NEMO and linear extension by HOIP” (Communications chemistry, 2019)

What was measured:
[1] = biological target: T1, linear di-Ubiquitin (UniProt P0CG47 1-76; P0CG47 1-76); experiment: BLI; biotinylated NEMO_(CoZi) or NEMO_(CoZi)-Ub immobilised on streptavidin biosensors (~2 ug/mL); di-Ub at 2-225 uM; 25 °C; 100 s association, 100 s dissociation; 10 mM HEPES pH 7.4, 150 mM NaCl, 3 mM EDTA, 0.005% Tween-20; equilibrium analysis of response against di-Ub concentration; conditions: both partners purified
T1 construct: ubiquitin (1-76), distal unit of the linear (M1-linked) dimer; ubiquitin (1-76), proximal unit, its Met1 joined by a peptide bond to Gly76 of the first unit; also called linear diubiquitin chains

[2] = biological target: the molecule itself; experiment: circular dichroism thermal melting at different concentrations; PBS pH 7.4; ellipticity at 222 nm, 2-80 °C, 2 °C/min; melting temperature rises with the concentration of NEMO_(CoZi) (20.2, 24.9, 28.5 °C); monomer to coiled-coil dimer

Kd [1]: 25 µM
B1: synthetic biotinylated mouse NEMO CoZi domain (NEMO_(CoZi)), 83-mer (domain or fragment)
chain: EDLRQQLQQAEEALVAKQELIDKLKEEAEQHKIVMETVPVLKAQADIYKADFQAERHAREKLVEKKEYLQEQLEQLQREFNKL
modifications: biotin on the N-terminus; C-terminal amide
notes: CoZi (coiled-coil and leucine zipper) domain of mouse NEMO, 83-mer; The unmodified peptide is the same 83-mer after Alloc removal, without the auxiliary; also called unmodified NEMO_(CoZi); source: synthetic peptide (solid-phase synthesis in a single piece, HPLC purified); not shown: biotin, N-terminal, kept
binding result [2]: binds
